Values joined by “and” are separate entries in the source; they are usually repeats but may differ in a detail not shown here. Equal values may be shown once.
Assays:
streptavidin (SA) = target: T1, streptavidin (SA) (UniProt P22629 37-163, limits assumed); experiment: SPR (BIAcore 3000), streptavidin injected over 2C4-FAB'-ss-L-DNA bound to captured huFc chimera HER2 ECD
T1 construct: Injected at 250 nM as effector moiety to probe the biotin of the 75mer ss-L-DNA linker
Excerpt: The BIAcore assay setup comprised the following (see also FIG. 6): A polyclonal goat anti human IgG-Fc gamma antibody was immobilized on the BIAcore CM5 sensor and serves as a capture system for the huFc chimera HER2 ECD.
The FAB fragments have a calculated molecular weight of 57 kDa, each. […] Streptavidin is the effector moiety.

IGF-1R(1340-1366)amid [1] = target: T2, IGF-1R(1340-1366)amid (C-terminal amide); experiment: SPR (BIAcore 3000, SA sensor, 25 C): ss-FABs hybridized on the biotinylated T40-Bi 77-mer ss-DNA linker on the surface; peptide as analyte in solution
T2 construct: also called IGF-1R peptide (free in solution); non-phosphorylated IGF-1R peptide
T2 peptide: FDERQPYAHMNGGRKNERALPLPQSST
Procedure: (§1) A BIAcore 3000 instrument (GE Healthcare) was used with a BIAcore SA sensor mounted into the system at T=25° C. The system was preconditioned at 100 μl/min with 3×1 min injection of 1 M NaCl in 50 mM NaOH and 1 min 10 mM HCl.
(§2) 124 RU amino-PEO-biotin were captured on the reference flow cell 1. […] As a control, buffer was injected instead of the ss-Fabs.
(§3) The dissociation was monitored at 50 μl/min for 5.3 min. The system was regenerated after each concentration step with a 12 sec pulse of 250 mM NaOH and was reloaded with ss-FAB ligand.

[2] = target: T3, IGF-1R(1340-1366)[1346-pTyr]amid (phosphotyrosine at 1346; C-terminal amide); experiment: as above
T3 construct: also called pIGF-1R peptide (free in solution); phosphorylated IGF-1R peptide
T3 peptide: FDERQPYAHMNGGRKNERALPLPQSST
Procedure: as §1, §2, §3

[3] = target: T3, IGF-1R(1340-1366)[1346-pTyr]amid; experiment: SPR (BIAcore 3000), complex on SA sensor, peptide in solution
Procedure: as §1, §2, §3

IGF-1R(1340-1366)amid [4] = target: T2, IGF-1R(1340-1366)amid; experiment: SPR (BIAcore 3000, SA sensor, 25 C): ss-FABs hybridized on the biotinylated T0-Bi 37-mer ss-DNA linker on the surface; peptide as analyte in solution
Procedure: as §1, §2, §3

[5] = target: T3, IGF-1R(1340-1366)[1346-pTyr]amid; experiment: as above
Procedure: as §1, §2, §3

[6] = target: T4, IGF-1R(1340-1366)[1346-pTyr; Glu(Bi-PEG-1340]amid (not fully specified; phosphotyrosine at 1346; PEG linker with biotin on the glutamic acid at position 1340; C-terminal amide); experiment: SPR (BIAcore 2000), biotinylated peptide on SA sensor, 100 nM analyte
T4 construct: also called pIGF-1R peptide (biotinylated); phosphorylated IGF-1R peptide
T4 peptide: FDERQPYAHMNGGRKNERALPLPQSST

[7] = target: T5, IGF-1R(1340-1366); Glu(Bi-PEG-1340]amid (not fully specified; PEG linker with biotin on the glutamic acid at position 1340; C-terminal amide); experiment: as above
T5 construct: also called IGF-1R peptide (biotinylated, non-phosphorylated)
T5 peptide: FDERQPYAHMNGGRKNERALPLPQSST

IGF-1R(1340-1366)amid [8] = target: T2, IGF-1R(1340-1366)amid; experiment: SPR (BIAcore 3000, SA sensor, 25 C): single ss-FAB hybridized on the biotinylated T40-Bi 77-mer ss-DNA linker on the surface; peptide as analyte in solution
Procedure: as §1, §2, §3

[9] = target: T6, INR(1355-1382)[1361-pTyr]amid (human, phosphotyrosine at 1361; C-terminal amide); experiment: as above
T6 construct: also called pINR peptide; phosphorylated insulin receptor peptide (free in solution)
T6 peptide: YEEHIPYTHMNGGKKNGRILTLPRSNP
Procedure: as §1, §2, §3

[10] = target: T3, IGF-1R(1340-1366)[1346-pTyr]amid; experiment: as above
Procedure: as §1, §2, §3

[11] = target: T7, hInsR(1355-1382)[1361-pTyr; Glu(Bi-PEG-1355]amid (human, not fully specified; phosphotyrosine at 1361; PEG linker with biotin on the glutamic acid at position 1355; C-terminal amide); experiment: SPR (BIAcore 2000), biotinylated peptide on SA sensor
T7 construct: also called pIR peptide; IR (phosphorylated insulin receptor) peptide (biotinylated)
T7 peptide: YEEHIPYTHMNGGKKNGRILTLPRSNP

IGF-1R(1340-1366)amid [12] = target: T2, IGF-1R(1340-1366)amid; experiment: SPR (BIAcore 3000, SA sensor, 25 C): single ss-FAB hybridized on the biotinylated T0-Bi 37-mer ss-DNA linker on the surface; peptide as analyte in solution
Procedure: as §1, §2, §3

[13] = target: T3, IGF-1R(1340-1366)[1346-pTyr]amid; experiment: as above
Procedure: as §1, §2, §3

T1 sequence (P22629 37-163 limits assumed): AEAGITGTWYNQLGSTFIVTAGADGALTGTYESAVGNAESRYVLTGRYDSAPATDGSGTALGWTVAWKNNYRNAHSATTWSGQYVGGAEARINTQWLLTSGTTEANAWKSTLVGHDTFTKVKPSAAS

B1: anti-HER2 antibody 2C4-FAB′-ss-L-DNA (Fab, V domains shown)
VH: EVQLVESGGGLVQPGGSLRLSCAASGFTFTDYTMDWVRQAPGKGLEWVADVNPNSGGSIYNQRFKGRFTLSVDRSKNTLYLQMNSLRAEDTAVYYCARNLGPSFYFDYWGQGTLVTVSS
VL: DIQMTQSPSSLSASVGDRVTITCKASQDVSIGVAWYQQKPGKAPKLLIYSASYRYTGVPSRFSGSGSGTDFTLTISSLQPEDFATYYCQQYYIYPYTFGQGTKVEIKQ
modifications: cysteine of the FAB′ hinge region linked via maleimide to fluorescein-labeled ss-L-DNA oligonucleotide
notes: FAB′ of 2C4 (Pertuzumab); also called 2C4-ss-L-DNA; 2C4-75mer
B1: no binding (tested: 250 nM) (streptavidin (SA)).

B2: T40 dual binding agent: ss-FAB 8.1.2 and ss-FAB 1.4.168 on the biotinylated T40-Bi 77-mer ss-DNA linker (linker 10) (bispecific antibody, V domains shown)
VH 1: EVQLQQSGPALVKPGASVKMSCKASGFTFTSYVIHWVKQKPGQGLEWIGYLNPYNDNTKYNEKFKGKATLTSDRSSSTVYMEFSSLTSEDSAVYFCARRGIYAYDHYFDYWGQGTSLTVSS
VL 1: QIVLTQSPAIMSASPGEKVTLTCSASSSVNYMYWYQQKPGSSPRLLIYDTSNLASGVPVRFSGSGSVTSYSLTISRMEAEDAATYYCQQWSTYPLTFGAGTKLELK
VH 2: QCDVKLVESGGGLVKPGGSLKLSCAASGFTFSDYPMSWVRQTPEKRLEWVATITTGGTYTYYPDSIKGRFTISRDNAKNTLYLQMGSLQSEDAAMYYCTRVKTDLWWGLAYWGQGTLVTVSA
VL 2: QLVLTQSSSASFSLGASAKLTCTLSSQHSTYTIEWYQQQPLKPPKYVMELKKDGSHTTGDGIPDRFSGSSSGADRYLSISNIQPEDESIYICGVGDTIKEQFVYVFGGGTKVTVLG
modifications: FAB′ hinge cysteine linked to ss-DNA
notes: Assembled on the SA sensor surface; also called T40-bi complex
In the case of B2, the Kd (IGF-1R(1340-1366)amid [1]) is reported as 0.973 nM and 1 nM, the t1/2 diss (IGF-1R(1340-1366)amid [1]) is reported as 4.3 min and the Kd [2] is reported as 0.0125 nM. It also gave a Kd [3] of 0.01 nM.

B3: T0 dual binding agent: ss-FAB 8.1.2 and ss-FAB 1.4.168 on the biotinylated T0-Bi 37-mer ss-DNA linker (linker 17) (bispecific antibody, V domains shown)
VH 1: EVQLQQSGPALVKPGASVKMSCKASGFTFTSYVIHWVKQKPGQGLEWIGYLNPYNDNTKYNEKFKGKATLTSDRSSSTVYMEFSSLTSEDSAVYFCARRGIYAYDHYFDYWGQGTSLTVSS
VL 1: QIVLTQSPAIMSASPGEKVTLTCSASSSVNYMYWYQQKPGSSPRLLIYDTSNLASGVPVRFSGSGSVTSYSLTISRMEAEDAATYYCQQWSTYPLTFGAGTKLELK
VH 2: QCDVKLVESGGGLVKPGGSLKLSCAASGFTFSDYPMSWVRQTPEKRLEWVATITTGGTYTYYPDSIKGRFTISRDNAKNTLYLQMGSLQSEDAAMYYCTRVKTDLWWGLAYWGQGTLVTVSA
VL 2: QLVLTQSSSASFSLGASAKLTCTLSSQHSTYTIEWYQQQPLKPPKYVMELKKDGSHTTGDGIPDRFSGSSSGADRYLSISNIQPEDESIYICGVGDTIKEQFVYVFGGGTKVTVLG
modifications: FAB′ hinge cysteine linked to ss-DNA
In the case of B3, the Kd (IGF-1R(1340-1366)amid [4]) is reported as 1.2 nM and 1 nM, the t1/2 diss (IGF-1R(1340-1366)amid [4]) is reported as 5 min and the Kd [5] is reported as 0.0344 nM. It also gave a Kd [3] of 0.03 nM.

B4: ss-FAB′ 1.4.168 (Fab, V domains shown)
VH: DVKLVESGGGLVKPGGSLKLSCAASGFTFSDYPMSWVRQTPEKRLEWVATITTGGTYTYYPDSIKGRFTISRDNAKNTLYLQMGSLQSEDAAMYYCTRVKTDLWWGLAYWGQGTLVTVSA
VL: QLVLTQSSSASFSLGASAKLTCTLSSQHSTYTIEWYQQQPLKPPKYVMELKKDGSHTTGDGIPDRFSGSSSGADRYLSISNIQPEDESIYICGVGDTIKEQFVYVFGGGTKVTVLG
modifications: cysteine of the FAB′ hinge region linked to 17mer ss-DNA comprising SEQ ID NO: 05 with fluorescein
notes: FAB′ from pepsin cleavage of murine mAb 1.4.168; also called ss-FAB 1.004.168; fluorescein-ss-FAB′ 1.4.168
With B4 the T1/2 dis [6] was 3 min, the T1/2 dis [7] was 3 min and the Kd (IGF-1R(1340-1366)amid [8]) was 1.1 nM and 1 nM. For the same binder, the koff (IGF-1R(1340-1366)amid [8]) was 0.00362 s⁻¹, the kon (IGF-1R(1340-1366)amid [8]) was 3.3e+06 M⁻¹ s⁻¹ and the t1/2 diss (IGF-1R(1340-1366)amid [8]) was 3 min. The binding result [9] was “no binding (tested: 300 nM (highest peptide step))”, the Kd [10] was 2.14 nM and 2 nM and the koff [10] was 0.00419 s⁻¹. The kon [10] was 1.96e+06 M⁻¹ s⁻¹, the binding result [11] was “no binding (tested: 100 nM)” and the Kd (IGF-1R(1340-1366)amid [12]) was 1.35 nM and 1 nM. For the same binder, the koff (IGF-1R(1340-1366)amid [12]) was 0.00326 s⁻¹, the kon (IGF-1R(1340-1366)amid [12]) was 2.41e+06 M⁻¹ s⁻¹ and the t1/2 diss (IGF-1R(1340-1366)amid [12]) was 4 min. For the same binder, the Kd [13] was 2.59 nM and 3 nM, the koff [13] was 0.00291 s⁻¹ and the kon [13] was 1.12e+06 M⁻¹ s⁻¹. For the same binder, the t1/2 diss [13] was 4 min.
